Experimental data as given in patent publication US12692310B2, “ASIC1 channel antagonist antibody” (ShanghaiTech University, priority 2019, dated 2026).
Substitutions are numbered along the chain they refer to. One block for each molecule: values may come before it.

How the values were obtained:
[1] = molecular target: T1, hASIC1a (hASIC1a-mCherry, 4C12 cells) (Homo sapiens, UniProt P78348); experiment: FLIPR assay of acid-induced ASIC1a-mediated calcium influx in 4C12 cells; assay type: cell-based; conditions: at 30 µM
T1 construct: expressed in transfected cells
Method: Calcium Influx. The FLIPR Calcium 5 Assay kit was used to determine the acid-induced calcium influx in the hASIC1a-mCherry-expressing stable CHO-K1 cells (4C12). Cells were seeded in a clear bottom 96-well plate at a density of 10,000 per well 24 h before assay. Assay buffer and dye loading buffer (1.26 mM CaCl2, 0.5 mM MgCl2, 0.4 mM MgSO4, 5.33 mM KCl, 0.44 mM KH2PO4, 4.17 mM NaHCO3, 138 mM NaCl, 0.338 mM Na2HPO4, 20 mM HEPES, pH 7.4) were prepared according to the manufacturer's instruction. Probenecid was added to the dye loading buffer to a final concentration of 2.5 mM immediately before use. Fifty microliters of the assay buffer containing ASC06-IgG1 was incubated with the 4C12 cells for 30 min at 37° C., and an equal volume of the dye loading buffer was added. […] Cells were incubated with the dye loading buffer for 1 h before reading on an FDSS/μCELL plate reader (Hamamatsu). […] The progression curve of the calcium signal produced in each well was recorded continuously for 10 s before the addition of the activation buffer (preread) and 170 s after the addition on an FDSS/μCELL (excitation wavelength: 480 nm; emission wavelength: 540 nm) FLIPR reader. […]
The calcium influx of the ASIC1a was measured on a FLIPR instrument using the stable cell line 4C12 expressing hASIC1a-mCherry fusion. […]

hASIC1a-eYFP [2] = molecular target: T2, hASIC1a-eYFP (human, UniProt P78348 1-528); experiment: cell-based or functional assay
T2 sequence (looked up): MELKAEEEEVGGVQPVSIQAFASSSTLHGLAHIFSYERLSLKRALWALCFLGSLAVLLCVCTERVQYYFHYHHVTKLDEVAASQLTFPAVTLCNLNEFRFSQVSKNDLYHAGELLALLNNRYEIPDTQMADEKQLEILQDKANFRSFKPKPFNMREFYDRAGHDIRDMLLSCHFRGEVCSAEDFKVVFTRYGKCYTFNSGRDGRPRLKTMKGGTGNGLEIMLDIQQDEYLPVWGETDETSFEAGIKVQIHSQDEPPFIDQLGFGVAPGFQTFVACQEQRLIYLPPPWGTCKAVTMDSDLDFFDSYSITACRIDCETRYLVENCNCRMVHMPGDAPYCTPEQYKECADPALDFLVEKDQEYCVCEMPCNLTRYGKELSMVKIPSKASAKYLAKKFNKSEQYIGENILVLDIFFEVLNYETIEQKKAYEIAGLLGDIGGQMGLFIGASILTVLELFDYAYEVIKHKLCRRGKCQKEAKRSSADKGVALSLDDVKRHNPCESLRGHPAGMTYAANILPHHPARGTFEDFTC

hASIC1a-mCherry = molecular target: T3, hASIC1a-mCherry (human, UniProt P78348 1-528); experiment: cell-based or functional assay
T3 sequence (looked up): T2 sequence (looked up)

hASIC1a-eYFP [3] = molecular target: T2, hASIC1a-eYFP; experiment: flow cytometry on 6H7 cells (stable hASIC1a-eYFP), Alexa555 secondary antibody
Method: In the flow cytometry-binding experiments, ASIC1a-eYFP-expressing stable cells (6H7) were collected and resuspended in ice cold FACS buffer (PBS, 0.05% BSA, 2 mM EDTA). […] After incubating at 4° C. for 15 min, the cells were washed twice and resuspended in the FACS buffer. Cells were sorted and analyzed on a flow cytometer (CytoFLEX S; Beckman Culter) to determine relative binding level by the antibodies to the stable cell lines overexpressing hASIC1a. Mean fluorescent intensities of Alexa555 in eYFP-positive cells were recorded and analyzed to calculate the apparent binding affinity of antibody.

[4] = molecular target: truncated hASIC1a (amino acids 13-464) (human) (UniProt P78348); experiment: SPR (Biacore T200), single cycle kinetics, Flag-tagged ΔhASIC1a captured on anti-Flag chip, antibody as analyte
hASIC2a-eYFP = molecular target: T4, hASIC2a-eYFP (human, UniProt Q16515 1-512); experiment: flow cytometry, CHO-K1 cells transiently transfected with hASIC2a-eYFP, Alexa555-conjugated ASC06-IgG1
T4 construct: whole, on cells; Transiently expressed on CHO-K1 cells; not shown: eYFP fusion
T4 sequence (looked up): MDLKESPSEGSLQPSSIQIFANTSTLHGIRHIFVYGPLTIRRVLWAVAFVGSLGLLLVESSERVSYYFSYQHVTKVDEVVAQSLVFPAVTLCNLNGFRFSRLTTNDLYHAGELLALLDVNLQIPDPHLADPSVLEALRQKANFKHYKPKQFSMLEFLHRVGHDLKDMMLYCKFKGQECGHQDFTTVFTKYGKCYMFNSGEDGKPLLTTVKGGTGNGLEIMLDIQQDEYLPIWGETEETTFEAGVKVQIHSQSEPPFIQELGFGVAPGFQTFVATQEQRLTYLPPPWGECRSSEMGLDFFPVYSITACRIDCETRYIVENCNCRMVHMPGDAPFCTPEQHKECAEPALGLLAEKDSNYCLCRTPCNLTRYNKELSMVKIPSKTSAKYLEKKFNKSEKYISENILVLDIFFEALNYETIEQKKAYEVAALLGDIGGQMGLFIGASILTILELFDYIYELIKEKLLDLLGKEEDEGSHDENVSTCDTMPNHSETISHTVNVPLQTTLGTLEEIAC

hASIC3a-eYFP = molecular target: T5, hASIC3a-eYFP (human, UniProt Q9UHC3 1-531); experiment: flow cytometry, CHO-K1 cells transiently transfected with hASIC3a-eYFP, Alexa555-conjugated ASC06-IgG1
T5 construct: whole, on cells; Transiently expressed on CHO-K1 cells; not shown: eYFP fusion
T5 sequence (looked up): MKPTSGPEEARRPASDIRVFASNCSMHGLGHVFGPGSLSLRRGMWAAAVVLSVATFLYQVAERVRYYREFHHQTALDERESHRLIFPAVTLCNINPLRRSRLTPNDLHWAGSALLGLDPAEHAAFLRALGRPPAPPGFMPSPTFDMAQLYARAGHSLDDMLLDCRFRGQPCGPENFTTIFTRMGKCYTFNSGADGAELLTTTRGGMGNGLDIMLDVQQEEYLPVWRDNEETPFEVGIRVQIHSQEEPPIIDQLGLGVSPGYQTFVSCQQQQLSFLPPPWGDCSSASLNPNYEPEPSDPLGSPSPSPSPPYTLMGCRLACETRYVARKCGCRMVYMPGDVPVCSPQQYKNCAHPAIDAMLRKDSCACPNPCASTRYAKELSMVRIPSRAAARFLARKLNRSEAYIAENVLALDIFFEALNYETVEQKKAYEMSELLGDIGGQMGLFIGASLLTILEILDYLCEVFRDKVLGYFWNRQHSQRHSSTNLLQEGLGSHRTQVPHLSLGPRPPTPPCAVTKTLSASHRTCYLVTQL

[5] = molecular target: T6, hASIC1a Y318A mutation (hASIC1a-eYFP) (human, UniProt P78348 1-528); experiment: flow cytometry, CHO-K1 cells transiently transfected with hASIC1a Y318A-eYFP, ASC06-IgG1 and labelled second antibody
T6 construct: whole, on cells; Transiently expressed on CHO-K1 cells; not shown: eYFP fusion
T6 sequence (looked up): T2 sequence (looked up) with Y318A

hASIC1b-eYFP (human) = hASIC1b-eYFP (human) (UniProt P78348); experiment: flow cytometry, CHO-K1 cells transiently transfected with hASIC1b-eYFP, Alexa555-conjugated ASC06-IgG1; eYFP-positive cells without antibody signal: Q1-LR(49.22%)
hASIC2a/2b-eYFP (human) = hASIC2a/2b-eYFP (human) (UniProt Q16515); experiment: flow cytometry, CHO-K1 cells transiently transfected with hASIC2a/2b-eYFP, Alexa555-conjugated ASC06-IgG1; eYFP-positive cells without antibody signal: Q1-LR(27.09%)

inhibition of calcium influx [1]: 21%
Molecule: N=C(N)NC(=O)c1nc(Cl)c(N)nc1N [amiloride]

apparent IC50 of inhibition of acid (pH 6.0)-induced currents, whole-cell patch clamp on the hASIC1a stable cell line (hASIC1a-eYFP [2]): 85 nM
IC50 of inhibition of acid-induced calcium influx, FLIPR assay on 4C12 cells (hASIC1a-mCherry): 2.9 nM
EC50 (hASIC1a-eYFP [3]): 2.06 nM
Kd [4]: 7.9 nM
binding result (hASIC2a-eYFP): no binding
binding result (hASIC3a-eYFP): no binding
binding result [5]: no binding
percent of cells in quadrant Q1-UR (Alexa555 and eYFP double-positive) (hASIC1b-eYFP (human)): 0.15%
percent of cells in quadrant Q1-UR (Alexa555 and eYFP double-positive) (hASIC2a/2b-eYFP (human)): 0.11%
B1: ASC06-IgG1 (antibody, V domains shown)
VH: QVQLQQSGGGLVQPGGSLRLSCAASGFTFSSYAMSWVRQAPGKGLEWVSAISGSGGSTYYADSVKGRFTISRDNSKNTLYLQMNSLRAEDTAVYYCAKDSFYGYSKGDWGQGTLVTVSS
VL: QSALTQPASVSGSPGQSITISCTGTSSDVGAYNYVSWYQQQPGKAPKLMIYGVSNRPSGVSNRFSGSKSGNAASLTISGLQAEDEADYYCSSYTSSSTYVFGTGTKLTVLG
notes: also called full length (ASC06-IgG1); ASC06-lgG1
